The values below come from patent US20170015742A1 (published 2017).

For orientation: Kd means the constant that tells how readily two partners part at equilibrium. Lower therefore signals a tighter complex. What is called kon is the second-order rate constant of association. Read a high kon as fast association.

For one assay, the target named is VEGF-A (UniProt P15692-4 27-191, limits assumed). Briefly: SPR (Biacore), DVD-Ig captured by anti-human Fc, antigen in flow. As to the method:
(§1) For example, approximately 9000 RU of goat anti-human Fc specific polyclonal antibody (Thermo Fisher Scientific Inc., Rockford, Ill.) diluted in 10 mM sodium acetate (pH 4.5) is directly immobilized across a CM5 research grade biosensor chip using a standard amine coupling kit according to manufacturer's instructions and procedures at 25 μg/ml. Unreacted moieties on the biosensor surface were blocked with ethanolamine. For kinetic analysis, rate equations derived from the 1:1 Langmuir binding model were fitted simultaneously to multiple antigen injections (using global fit analysis) with the use of Scrubber 2 (BioLogic Software), Biacore Biaevaluation 4.0.1 software or Biacore T100 Evaluation software. Purified antibodies or DVD-Ig molecules were diluted in running buffer for capture across goat anti-human Fc reaction surfaces. Antibodies or DVD-Ig molecules to be captured as a ligand (1 μg/ml) were injected over reaction matrices at a flow rate of 10 μl/minute. During the assay, all measurements were referenced against the capture surface alone (i.e., with no captured antibody or DVD-Ig molecule). […] The equilibrium dissociation constant KD (M) of the reaction between antibodies and the target antigen was then calculated from the kinetic rate constants by the following formula: KD=Koff/Kₒₙ. Binding was recorded as a function of time and kinetic rate constants were calculated.
On the technique in general: In SPR one partner is held on a chip, and binding of the other changes the refractive index at the surface.

For the next assay, the target named is PDGF-BB (UniProt P01127 82-190). Described as above. Here is the method: as §1
Sequence of PDGF-BB (P01127 82-190): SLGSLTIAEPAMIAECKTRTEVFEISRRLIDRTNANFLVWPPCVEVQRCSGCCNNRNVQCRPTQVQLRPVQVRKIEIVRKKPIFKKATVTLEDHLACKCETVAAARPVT

Sequence of VEGF-A (P15692 other isoform, or with tags, fused parts or gaps limits assumed): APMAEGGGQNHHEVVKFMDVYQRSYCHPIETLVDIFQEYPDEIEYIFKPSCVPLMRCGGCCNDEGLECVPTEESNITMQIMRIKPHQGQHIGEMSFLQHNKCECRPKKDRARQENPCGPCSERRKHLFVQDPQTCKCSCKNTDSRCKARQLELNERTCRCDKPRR

B1: 4G8.3-SL-9E8.4 (PR-1564012) (bispecific antibody, human IgG1, kappa, L234A L235A)
heavy: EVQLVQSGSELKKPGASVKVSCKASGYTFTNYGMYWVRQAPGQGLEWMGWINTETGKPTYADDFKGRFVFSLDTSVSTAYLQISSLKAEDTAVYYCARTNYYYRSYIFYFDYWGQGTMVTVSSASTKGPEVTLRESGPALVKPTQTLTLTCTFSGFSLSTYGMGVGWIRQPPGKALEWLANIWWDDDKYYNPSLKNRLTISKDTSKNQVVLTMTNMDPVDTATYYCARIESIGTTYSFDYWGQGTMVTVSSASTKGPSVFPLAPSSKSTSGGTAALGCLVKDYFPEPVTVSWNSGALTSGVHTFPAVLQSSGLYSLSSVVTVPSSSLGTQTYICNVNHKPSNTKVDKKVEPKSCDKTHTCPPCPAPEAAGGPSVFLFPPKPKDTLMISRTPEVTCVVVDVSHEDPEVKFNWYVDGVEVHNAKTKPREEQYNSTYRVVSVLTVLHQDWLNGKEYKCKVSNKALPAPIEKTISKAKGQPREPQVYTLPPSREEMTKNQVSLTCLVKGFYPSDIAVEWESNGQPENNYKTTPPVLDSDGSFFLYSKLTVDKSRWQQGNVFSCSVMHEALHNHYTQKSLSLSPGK
light: DTVLTQSPATLSLSPGERATLSCRASESVSTHMHWYQQKPGQAPRLLIYGASNLESGVPARFSGSGSGTDFTLTISSLEPEDFAVYFCQQSWNDPFTFGQGTKLEIKRTVAAPSVFIFPPEFVLTQSPGTLSLSPGERATLSCERSSGDIGDSYVSWYQQKPGQAPRLVIYADDQRPSGIPDRFSGSGSGTDFTLTISRLEPEDFAVYYCQSYDINIDIVFGGGTKVEIKGTVAAPSVFIFPPSDEQLKSGTASVVCLLNNFYPREAKVQWKVDNALQSGNSQESVTEQDSKDSTYSLSSTLTLSKADYEKHKVYACEVTHQGLSSPVTKSFNRGEC
notes: DVD-Ig; outer hBDB-4G8.3 (VEGF), linkers HG-short/LK-long, inner hBDI-9E8.4 (PDGF); human IgG1 L234A, L235A / kappa
In the assay with VEGF-A, B1 registered a Kd of 0.013 nM and a kon of 3.1e+06 M⁻¹ s⁻¹. In the assay with PDGF-BB, this molecule gave a Kd of 0.0099 nM and an on-rate constant (kon) of 1.4e+07 M⁻¹ s⁻¹.

B2: 4G8.3-SL-9E8.4 (g) (PR-1572105) (bispecific antibody, human IgG1, kappa, L234A L235A)
heavy: EVQLVQSGSELKKPGASVKVSCKASGYTFTNYGMYWVRQAPGQGLEWMGWINTETGKPTYADDFKGRFVFSLDTSVSTAYLQISSLKAEDTAVYYCARTNYYYRSYIFYFDYWGQGTMVTVSSASTKGPEVTLRESGPALVKPTQTLTLTCTFSGFSLSTYGMGVGWIRQPPGKALEWLANIWWDDDKYYNPSLKNRLTISKDTSKNQVVLTMTNMDPVDTATYYCARIESIGTTYSFDYWGQGTMVTVSSASTKGPSVFPLAPSSKSTSGGTAALGCLVKDYFPEPVTVSWNSGALTSGVHTFPAVLQSSGLYSLSSVVTVPSSSLGTQTYICNVNHKPSNTKVDKKVEPKSCDKTHTCPPCPAPEAAGGPSVFLFPPKPKDTLMISRTPEVTCVVVDVSHEDPEVKFNWYVDGVEVHNAKTKPREEQYNSTYRVVSVLTVLHQDWLNGKEYKCKVSNKALPAPIEKTISKAKGQPREPQVYTLPPSREEMTKNQVSLTCLVKGFYPSDIAVEWESNGQPENNYKTTPPVLDSDGSFFLYSKLTVDKSRWQQGNVFSCSVMHEALHNAYTQKSLSLSPGK
light: DTVLTQSPATLSLSPGERATLSCRASESVSTHMHWYQQKPGQAPRLLIYGASNLESGVPARFSGSGSGTDFTLTISSLEPEDFAVYFCQQSWNDPFTFGQGTKLEIKRTVAAPSVFIFPPEFVLTQSPGTLSLSPGERATLSCERSSGDIGDSYVSWYQQKPGQAPRLVIYADDQRPSGIPDRFSGSGSGTDFTLTISRLEPEDFAVYYCQSYDINIDIVFGGGTKVEIKRTVAAPSVFIFPPSDEQLKSGTASVVCLLNNFYPREAKVQWKVDNALQSGNSQESVTEQDSKDSTYSLSSTLTLSKADYEKHKVYACEVTHQGLSSPVTKSFNRGEC
notes: DVD-Ig; outer hBDB-4G8.3 (VEGF), linkers HG-short/LK-long, inner hBDI-9E8.4 (PDGF); human IgG1 L234A, L235A, H435A / kappa; also called hu VEGF 4G8.3-SL-hu PDGF 9E8.4 (germline) [hu IgG1/k]; LALA H435A; DVD-Ig-3
For B2, the values for the Kd with VEGF-A and with PDGF-BB were 0.011 nM and 0.013 nM, respectively. In addition, the on-rate (kon) was determined as 5.6e+06 M⁻¹ s⁻¹ with VEGF-A and 1.3e+07 M⁻¹ s⁻¹ in the assay with PDGF-BB.

B3: 4G8.3-SS-9E8.4 (PR-1564011) (bispecific antibody, human IgG1, kappa, L234A L235A)
heavy: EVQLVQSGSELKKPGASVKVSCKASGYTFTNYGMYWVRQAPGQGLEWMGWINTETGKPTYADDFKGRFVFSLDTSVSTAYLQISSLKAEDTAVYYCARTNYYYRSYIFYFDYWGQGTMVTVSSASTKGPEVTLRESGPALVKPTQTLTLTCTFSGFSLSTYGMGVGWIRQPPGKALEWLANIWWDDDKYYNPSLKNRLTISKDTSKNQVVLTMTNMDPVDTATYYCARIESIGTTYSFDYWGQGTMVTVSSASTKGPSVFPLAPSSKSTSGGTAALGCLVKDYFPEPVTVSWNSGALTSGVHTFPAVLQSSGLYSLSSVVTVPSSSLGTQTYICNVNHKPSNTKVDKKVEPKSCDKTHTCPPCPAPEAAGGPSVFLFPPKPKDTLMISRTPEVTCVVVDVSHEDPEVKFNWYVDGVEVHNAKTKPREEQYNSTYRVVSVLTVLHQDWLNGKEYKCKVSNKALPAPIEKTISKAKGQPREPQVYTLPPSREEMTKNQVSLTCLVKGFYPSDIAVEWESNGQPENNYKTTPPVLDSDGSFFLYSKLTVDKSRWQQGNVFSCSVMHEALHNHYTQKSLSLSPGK
light: DTVLTQSPATLSLSPGERATLSCRASESVSTHMHWYQQKPGQAPRLLIYGASNLESGVPARFSGSGSGTDFTLTISSLEPEDFAVYFCQQSWNDPFTFGQGTKLEIKRTVAAPEFVLTQSPGTLSLSPGERATLSCERSSGDIGDSYVSWYQQKPGQAPRLVIYADDQRPSGIPDRFSGSGSGTDFTLTISRLEPEDFAVYYCQSYDINIDIVFGGGTKVEIKGTVAAPSVFIFPPSDEQLKSGTASVVCLLNNFYPREAKVQWKVDNALQSGNSQESVTEQDSKDSTYSLSSTLTLSKADYEKHKVYACEVTHQGLSSPVTKSFNRGEC
notes: DVD-Ig; outer hBDB-4G8.3 (VEGF), linkers HG-short/LK-short, inner hBDI-9E8.4 (PDGF); human IgG1 L234A, L235A / kappa
Take B3: in the assay with VEGF-A, binding was put at a Kd of 0.013 nM and the association rate constant (kon) stood at 3.1e+06 M⁻¹ s⁻¹. In the assay with PDGF-BB, this molecule displayed a dissociation constant (Kd) of 0.019 nM and a kon of 7.5e+06 M⁻¹ s⁻¹.

B4: 4G8.3-LS-9E8.4 (PR-1564013) (bispecific antibody, human IgG1, kappa, L234A L235A)
heavy: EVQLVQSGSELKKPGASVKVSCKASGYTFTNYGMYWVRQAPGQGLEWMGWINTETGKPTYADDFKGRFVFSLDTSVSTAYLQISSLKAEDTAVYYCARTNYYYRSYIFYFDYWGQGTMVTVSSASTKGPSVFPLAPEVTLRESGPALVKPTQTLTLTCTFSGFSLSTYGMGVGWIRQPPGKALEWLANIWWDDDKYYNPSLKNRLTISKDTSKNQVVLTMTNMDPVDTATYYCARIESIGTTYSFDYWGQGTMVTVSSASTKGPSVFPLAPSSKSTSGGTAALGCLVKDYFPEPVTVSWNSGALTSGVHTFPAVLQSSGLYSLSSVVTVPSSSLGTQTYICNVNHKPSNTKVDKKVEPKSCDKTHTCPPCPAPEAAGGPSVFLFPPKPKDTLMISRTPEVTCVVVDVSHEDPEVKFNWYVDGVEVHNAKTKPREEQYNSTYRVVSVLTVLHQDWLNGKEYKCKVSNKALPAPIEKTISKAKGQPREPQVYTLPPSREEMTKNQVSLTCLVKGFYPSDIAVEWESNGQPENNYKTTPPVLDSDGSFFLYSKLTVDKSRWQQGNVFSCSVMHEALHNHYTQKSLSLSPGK
light: DTVLTQSPATLSLSPGERATLSCRASESVSTHMHWYQQKPGQAPRLLIYGASNLESGVPARFSGSGSGTDFTLTISSLEPEDFAVYFCQQSWNDPFTFGQGTKLEIKRTVAAPEFVLTQSPGTLSLSPGERATLSCERSSGDIGDSYVSWYQQKPGQAPRLVIYADDQRPSGIPDRFSGSGSGTDFTLTISRLEPEDFAVYYCQSYDINIDIVFGGGTKVEIKGTVAAPSVFIFPPSDEQLKSGTASVVCLLNNFYPREAKVQWKVDNALQSGNSQESVTEQDSKDSTYSLSSTLTLSKADYEKHKVYACEVTHQGLSSPVTKSFNRGEC
notes: DVD-Ig; outer hBDB-4G8.3 (VEGF), linkers HG-long/LK-short, inner hBDI-9E8.4 (PDGF); human IgG1 L234A, L235A / kappa
In the assay with VEGF-A, B4 displayed a Kd of 0.012 nM and a kon of 3.1e+06 M⁻¹ s⁻¹. In the assay with PDGF-BB, the affinity, expressed as Kd, was 0.0086 nM and the kon amounted to 1.7e+07 M⁻¹ s⁻¹.
